One assay has as its target CD81 (UniProt P60033). The experiment in a line: cell-based or functional assay.
Assay [1] concerns the target E2 of genotype 1a HCVcc (hepatitis C virus genotype 1a). The experiment in a line: cell-based or functional assay.
The target in assay [2] is HCV E2 glycoprotein, genotype 1a (H77c) (hepatitis C virus genotype 1a, H77c) (UniProt P27958).

Sequence of CD81 (P60033 whole entry): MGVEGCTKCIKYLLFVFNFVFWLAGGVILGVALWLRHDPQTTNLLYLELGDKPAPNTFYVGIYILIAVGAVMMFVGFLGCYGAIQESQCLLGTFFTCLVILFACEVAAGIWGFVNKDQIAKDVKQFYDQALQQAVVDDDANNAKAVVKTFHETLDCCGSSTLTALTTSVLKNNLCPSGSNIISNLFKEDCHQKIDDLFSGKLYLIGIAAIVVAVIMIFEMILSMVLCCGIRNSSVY

As for “HCV 1a E2 with alanine substitution at 429 (from UniProt P27958 384-746)”, the reduction in viral infectivity, mutant 1a HCVpp (luciferase) in the assay with CD81 was above 95%. In turn, “HCV 1a E2 with alanine substitution at 613 (from UniProt P27958 384-746)” displayed a reduction in viral infectivity, mutant 1a HCVpp (luciferase) in the assay with CD81 above 95%. Still for that read-out and setting: the same measure for “HCV 1a E2 with alanine substitution at 443 (from UniProt P27958 384-746)”: 79%. CBH-5 (antibody) showed a 50% inhibition, neutralization of 1a HCVcc in assay [1] above 100 µg/mL. In addition, the % reduction of E2 binding to CD81 in assay [2] is above 90%. In the case of “HCV 1a E2 with alanine substitution at 420 (from UniProt P27958 384-746)”, the reduction in viral infectivity, mutant 1a HCVpp (luciferase) with CD81 is above 95%.

In turn, “HCV 1a E2 with alanine substitution at 437 (from UniProt P27958 384-746)” yielded a reduction in viral infectivity, mutant 1a HCVpp (luciferase) in the assay with CD81 above 95%. Still for that read-out and setting: the same measure for “HCV 1a E2 with alanine substitution at 446 (from UniProt P27958 384-746)”: 60%. The same measure, in the same setting: the same measure for “HCV 1a E2 with alanine substitution at 442 (from UniProt P27958 384-746)”: above 95%. For “HCV 1a E2 with alanine substitution at 616 (from UniProt P27958 384-746)”, the reduction in viral infectivity, mutant 1a HCVpp (luciferase) in the assay with CD81 was above 95%. Take “HCV 1a E2 with alanine substitution at 428 (from UniProt P27958 384-746)”: the reduction in viral infectivity, mutant 1a HCVpp (luciferase) with CD81 is 84%. Consider “HCV 1a E2 with alanine substitution at 441 (from UniProt P27958 384-746)”, for which the reduction in viral infectivity, mutant 1a HCVpp (luciferase) in the assay with CD81 was above 95%.

The values above are taken from patent publication US20130084301A1.
